We go through eight molecules from patent US20200407447A1 (CEINGEBIOTECNOLOGIE AVANZATE FRANCO SALVATORE SCARL, published 2020).

In general, EC50 (read off the curve) refers to the concentration that produces a half-maximal response. Low readings indicate higher potency in that assay, high ones lower potency in that assay.

Assay [1] has as its target T1, human LAG-3/Fc recombinant chimeric protein (R&D Systems) (human, UniProt P18627 23-450).
T1 construct: Bought from R&D Systems; also called rhLAG-3; recombinant protein/Fc
T1 sequence (looked up): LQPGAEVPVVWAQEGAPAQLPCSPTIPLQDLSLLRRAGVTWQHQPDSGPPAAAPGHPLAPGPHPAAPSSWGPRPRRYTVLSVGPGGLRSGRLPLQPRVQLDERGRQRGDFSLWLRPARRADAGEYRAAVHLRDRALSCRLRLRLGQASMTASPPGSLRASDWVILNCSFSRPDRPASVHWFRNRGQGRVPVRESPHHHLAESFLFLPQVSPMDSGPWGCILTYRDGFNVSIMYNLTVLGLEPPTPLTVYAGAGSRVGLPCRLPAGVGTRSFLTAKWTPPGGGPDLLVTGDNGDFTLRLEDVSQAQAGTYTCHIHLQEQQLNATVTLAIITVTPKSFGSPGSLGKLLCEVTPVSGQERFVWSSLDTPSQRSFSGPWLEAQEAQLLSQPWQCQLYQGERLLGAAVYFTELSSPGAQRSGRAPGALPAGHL
As to the kind of experiment: ELISA on coated recombinant LAG-3/Fc, mAb at increasing concentrations (apparent Kd, legend paragraph 26). The method, then: (§1) FIG. 2: Binding affinity of the selected antibodies for lymphocytes. The ELISA assays were performed with mAbs used at increasing concentrations (7.5 nM, 25 nM, 50 nM, 100 nM) on activated hPBMCs (black curves) or untreated hPBMCs (grey curves).
(§2) To confirm the binding specificity of the purified mAbs, ELISA assays were performed on chimeric proteins (coated at 5 μg/ml), tumor cells (PD-L1-positive breast cancer MDA-MB-231 cells or PD-L1-negative breast cancer MCF7), and untreated or activated hPBMCs. The ELISA assays on coated chimeric protein were performed by coating Nunc™ flat-bottom 96-well plates (Fisher Scientific, Thermo Fisher Scientific) with 5 μg/ml […], […] and rhLAG-3 recombinant proteins in a solution of 0.05 M NaHCO₃ for 72 hours at 37° C. […] After extensive washes with PBS, the plates were incubated with (HRP)-conjugated anti-human IgG (Fab′)2 goat monoclonal antibody (Abcam, Cambridge, UK) for 1 hour, washed again and incubated with TMB reagent for 10 min before quenching with an equal volume of 1N HCl.
(In an ELISA, binding on a coated surface is turned into a signal by an enzyme label.)

For assay [2], the target named is T2, human LAG-3 on activated hPBMCs (human, UniProt P18627 23-525).
T2 construct: whole, on cells; also called cognate receptor expressed on hPBMCs
T2 sequence (looked up): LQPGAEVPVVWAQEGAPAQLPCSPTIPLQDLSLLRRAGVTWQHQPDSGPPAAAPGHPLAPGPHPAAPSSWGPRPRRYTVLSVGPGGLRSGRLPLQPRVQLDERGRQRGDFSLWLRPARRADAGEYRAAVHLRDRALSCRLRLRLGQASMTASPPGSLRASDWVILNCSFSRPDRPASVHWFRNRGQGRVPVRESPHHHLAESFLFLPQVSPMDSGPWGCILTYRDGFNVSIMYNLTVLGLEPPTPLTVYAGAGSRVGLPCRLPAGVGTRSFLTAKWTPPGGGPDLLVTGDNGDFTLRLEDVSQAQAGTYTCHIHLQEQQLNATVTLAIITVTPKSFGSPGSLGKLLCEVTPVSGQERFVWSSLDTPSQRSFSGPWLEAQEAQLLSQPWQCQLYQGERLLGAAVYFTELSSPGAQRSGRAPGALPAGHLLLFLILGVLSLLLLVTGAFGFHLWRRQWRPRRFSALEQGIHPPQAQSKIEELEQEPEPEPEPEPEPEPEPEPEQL
The experiment in a line: cell ELISA on activated hPBMCs (apparent Kd, legend paragraph 26). As for the experimental part:
as §1
(§3) Plates were then centrifuged, cell pellets were washed with PBS and incubated with HRP-conjugated anti-human IgG goat polyclonal antibody for 1 hour at room temperature. Following additional washes in PBS 1×, TMB reagent was added for 10 min before quenching with an equal volume of 1N HCl. Absorbance at 450 nm was measured by the Envision plate reader (Perkin Elmer, Waltham, Mass., USA).

The target in assay [3] is T3, human PD-L1 on cells (activated hPBMCs; MDA-MB-231 tumor cells) (human, UniProt Q9NZQ7 19-290).
T3 construct: whole, on cells; also called PD-L protein
As to the kind of experiment: cell ELISA on activated hPBMCs (apparent Kd, legend paragraph 26) [continued]. The method, then: as §1, §3

The target in assay [4] is T4, human PD-L1/Fc recombinant chimeric protein (R&D Systems) (human, UniProt Q9NZQ7 19-239).
T4 construct: Bought from R&D Systems; also called recombinant protein/Fc
The experiment in a line: ELISA on coated recombinant PD-L1/Fc, mAb at increasing concentrations (apparent Kd, legend paragraph 26) [continued]. As for the experimental part: as §1, §2

Assay [5] deals with T3, human PD-L1 on cells (activated hPBMCs; …). The experiment in a line: cell ELISA on MDA-MB-231 tumor cells expressing PD-L1 (apparent Kd) [continued]. The method, then:
as §3

For assay [6], the target named is T5, human PD-1/Fc recombinant chimeric protein (R&D Systems) (human, UniProt Q15116 25-167).
T5 construct: Bought from R&D Systems; also called rhPD-1; recombinant protein/Fc
The experiment in a line: ELISA on coated recombinant PD-1/Fc, mAb at increasing concentrations (apparent Kd, legend paragraph 26) [continued]. The method, then: as §1, §2

Assay [7] deals with T6, human PD-1 on activated hPBMCs (human, UniProt Q15116 25-288).
T6 construct: whole, on cells; also called cognate receptor expressed on hPBMCs
As to the kind of experiment: cell ELISA on activated hPBMCs (apparent Kd, legend paragraph 26) [continued]. The method, then:
as §1, §3

Assay [8] deals with T3, human PD-L1 on cells (activated hPBMCs; …). The experiment in a line: flow cytometry on hPBMCs activated with anti-CD3/CD28 beads, MFI against IgG concentration. The method, then: Human PBMCs isolated from healthy donors were activated with anti-CD3/CD28 beads to stimulate PD-L1 expression.
The human peripheral blood mononuclear cells (hPBMCs) isolated from healthy donors were thawed in RPMI 1640 medium (Gibco), supplemented with 2 mM L-glutamine, 10% (v/v) CTL wash supplement (CTL, Shaker Heights, Ohio, USA), 100 U/ml Benzonase (Merck Millipore, Burlington, Mass., United States). After centrifugation at 1200 rpm for 10 min, they were resuspended in complete RPMI medium supplemented with 10% (v/v) heat-inactivated fetal bovine serum (FBS, Sigma), 2 mM L-glutamine, 100 U/ml penicillin and 100 µg/ml streptomicin (Gibco), HEPES 10 mM (Gibco). After resting for 16 h at 37° C. in a humidified atmosphere with 5% CO2, hPBMCs were counted, resuspended at a concentration of 10\hat{ }6 viable cells/ml in complete RPMI medium (as above) and activated with Dynabeads Human T-Activator CD3/CD28 (Gibco), 25 μl beads/10\hat{ }6 viable cells. 24 h post activation, the cells were centrifuged and plated at 4×10\hat{ }5 cells/well in PBS in a 96 well plate with round bottom. After one wash in PBS, they were incubated with 50 μl LIVE/DEAD™ Fixable Violet Dead Cell Stain (Invitrogen) for 30 min at +4° C. and washed once again.

T3 sequence (Q9NZQ7 19-290): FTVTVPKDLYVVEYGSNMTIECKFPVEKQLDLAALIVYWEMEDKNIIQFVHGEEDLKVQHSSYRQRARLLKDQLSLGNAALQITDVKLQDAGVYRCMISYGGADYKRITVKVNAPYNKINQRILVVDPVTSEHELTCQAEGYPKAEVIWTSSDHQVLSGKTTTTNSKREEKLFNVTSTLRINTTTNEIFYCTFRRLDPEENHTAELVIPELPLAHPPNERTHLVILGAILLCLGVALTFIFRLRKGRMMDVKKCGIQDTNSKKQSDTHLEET
T6 sequence (Q15116 25-288): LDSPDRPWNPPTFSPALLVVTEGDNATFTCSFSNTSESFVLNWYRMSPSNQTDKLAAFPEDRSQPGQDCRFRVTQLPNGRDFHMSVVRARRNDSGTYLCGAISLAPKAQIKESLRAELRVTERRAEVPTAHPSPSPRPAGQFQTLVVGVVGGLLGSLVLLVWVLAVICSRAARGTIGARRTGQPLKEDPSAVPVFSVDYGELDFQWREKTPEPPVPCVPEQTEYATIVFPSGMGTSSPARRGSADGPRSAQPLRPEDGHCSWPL
T5 sequence (Q15116 25-167, change not shown): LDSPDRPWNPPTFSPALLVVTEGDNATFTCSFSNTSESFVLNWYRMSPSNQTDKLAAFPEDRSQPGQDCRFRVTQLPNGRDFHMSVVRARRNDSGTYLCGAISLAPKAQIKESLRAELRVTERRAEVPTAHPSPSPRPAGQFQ
T4 sequence (Q9NZQ7 19-239, change not shown): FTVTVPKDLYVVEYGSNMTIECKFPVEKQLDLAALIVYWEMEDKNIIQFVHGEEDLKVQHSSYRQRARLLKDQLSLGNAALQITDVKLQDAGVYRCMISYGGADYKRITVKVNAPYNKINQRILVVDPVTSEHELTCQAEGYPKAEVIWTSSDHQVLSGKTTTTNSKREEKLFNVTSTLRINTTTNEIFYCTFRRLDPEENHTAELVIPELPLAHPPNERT

B1: LAG-3_A (antibody, human IgG4, V domains shown)
VH: EVQLLESGGGLVQPGGSLRLSCAASGFTFSSYAMSWVRQAPGKGLEWVSAISGSGGSTYYADSVKGRFTISRDNSKDTLYLQMNSLRAEDTAVYYCARDGPLYDISAGFVPISYYLDYWGQGTTVTVSS
VL: AQPVLTQPPSASGTPGQRVTISCSGSFSNIGSNYVFWYQQLPGTAPKLLISGNNQRPSGVPDRFSGSKSGTSASLAISGLRSQDEADYYCATWDDSLRGWVFGGGTKLTVL
notes: also called mAb LAG-3_A
Turning to B1, the figures for the Kd in assay [1] and in assay [2] were 38 nM and 6 nM, respectively.

B2: PD-L1_B (antibody, V domains shown)
VH: QVQLVQSGAEVKKPGSSVEVSCKVSGNTVIGYAVSWVRQAPGQGPEWMGRLIPSVGLTNYAQKFQDRLTFTADTSTSTVTMALSSLTSEDTAMYYCARDVSPAVPVSQYWGQGTLVTVSS
VL: AQSVLTQPPSVSAAPGQKVIISCSGDSFNIGSHSVSWYKQLPGSAPKLLIYENNVRPSGIPDRFSGSKSGTSATLGITGLQTRDEADYYCGAWDSSLNGHWVFGGGTQLTVL
notes: also called mAb PD-L1_B
As to B2, the Kd came out at 0.1 nM in assay [3], 0.46 nM in assay [4] and 0.74 nM in assay [5].

B3: LAG-3_C (antibody, human IgG4, V domains shown)
VH: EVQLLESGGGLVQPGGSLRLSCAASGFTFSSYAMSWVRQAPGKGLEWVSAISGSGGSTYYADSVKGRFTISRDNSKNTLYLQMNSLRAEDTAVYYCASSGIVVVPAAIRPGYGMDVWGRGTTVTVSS
VL: AQAVLTQPSSVSGAPGQRVTISCTGSSSNIGAGYDVHWYQQLPGTAPKLLIYGNNNRPSGVPDRFSGSKSGTSASLAITGLQPEDEADYYCQSYDFGLSRVFGGGTKLTVL
notes: also called mAb LAG-3_C
With B3, the Kd in assay [1] worked out at 52 nM; in assay [2], 2.6 nM.

B4: PD-1_A (antibody, V domains shown)
VH: QVQLQESGPGVVKPSGTLSLTCAISGGSIGSGGSIRSTRWWSWVRQSPGKGLEWIGEIYHSGSTNYNPSLKSRVTISLDKSRNHFSLRLNSVTAADTAVYYCARQDYGDSGDWYFDLWGKGTLVTVSS
VL: AQAVLTQPSSVSGAPGQRVTISCTGSSSNIGAGYDVHWYQQLPGTAPKLLIYGNNNRPSGVPDRFSGSKSGTSASLAITGLQTEDEADYYCQSYDNSLSGEVFGGGTKVTVL
notes: also called mAb PD-1_A; anti-PD-1 antibody PD-1_A
For the molecule B4, the Kd in assay [6] turned out to be 0.15 nM; in assay [7], 0.14 nM.

B5: PD-1_B (antibody, V domains shown)
VH: QVQLVQSGAEVKKPGASVKVSCKASGYTFTSYGISWVRQAPGQGLEWMGWISAYNGNTNYAQKLQGRVTMTTDTSTSTAYMELRSLRSDDTAVYYCARDFGSGSYYDLDYWGQGTMVTVSS
VL: ANFMLTQPHSVSESPGKTVTISCTGSSGSIASNYVQWYQQRPGSAPTTVIYEDNQRPSGVPDRFSGSIDSSSNSASLTISGLKTEDEADYYCQSYDSNNHWVFGGGTKLTVL
notes: also called mAb PD-1_B
With B5, the Kd in assay [6] is 0.29 nM; in assay [7], 0.6 nM.

B6: PD-L1_E (antibody, V domains shown)
VH: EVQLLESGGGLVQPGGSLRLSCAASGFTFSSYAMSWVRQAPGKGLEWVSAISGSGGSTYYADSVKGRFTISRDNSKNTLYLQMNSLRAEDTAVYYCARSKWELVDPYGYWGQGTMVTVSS
VL: ANFMLTQPHSVSESPGKTITISCTRSSGSIAGNYVQWYQQRPGSAPIIVIYEDNQRPSGVPDRFSGSIDSSSNSASLTISRLKTEDEADYYCQSYEASNVVFGGGTKLTVL
notes: Tested as a mAb detected with anti-human IgG Fc
In the case of B6, the binding result in assay [8] was “binds”.

B7: PD-L1_C (antibody, V domains shown)
VH: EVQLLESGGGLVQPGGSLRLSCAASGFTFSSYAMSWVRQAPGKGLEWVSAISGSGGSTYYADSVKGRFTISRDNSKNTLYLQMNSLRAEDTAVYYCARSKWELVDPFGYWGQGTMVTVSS
VL: B6 VL
notes: as for B6
On to B7, for which, in assay [8], the “EC50 (read off the curve)” value was around 2 nM.

B8: LAG-3_D (antibody, V domains shown)
VH: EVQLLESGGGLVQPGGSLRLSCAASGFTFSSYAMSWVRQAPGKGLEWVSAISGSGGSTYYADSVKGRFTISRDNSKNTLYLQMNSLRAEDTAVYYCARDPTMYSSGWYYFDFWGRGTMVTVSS
VL: ALSYVLTQPPSVSEAPRQRVTISCSGSSSNIGNNAVNWYQQLPGKAPKLLIYYDDLLPSGVSDRFSGSKSGTSASLAISGLQSEDEADYYCATWDDSLNGQVFGTGTKLTVL
On to B8, for which the Kd in assay [1] was 24 nM; in assay [2] it was 19 nM.
